Experimental data: IntAct's records for PubMed 15150219

B1: Nitrogen regulatory protein P-II (Synechococcus elongatus (strain PCC 7942)), P0A3F4 (parent)
chain: MKKIEAIIRPFKLDEVKIALVNAGIVGMTVSEVRGFGRQKGQTERYRGSEYTVEFLQKLKLEIVVEDAQVDTVIDKIVAAARTGEIGDGKIFVSPVDQTIRIRTGEKNADAI
partner: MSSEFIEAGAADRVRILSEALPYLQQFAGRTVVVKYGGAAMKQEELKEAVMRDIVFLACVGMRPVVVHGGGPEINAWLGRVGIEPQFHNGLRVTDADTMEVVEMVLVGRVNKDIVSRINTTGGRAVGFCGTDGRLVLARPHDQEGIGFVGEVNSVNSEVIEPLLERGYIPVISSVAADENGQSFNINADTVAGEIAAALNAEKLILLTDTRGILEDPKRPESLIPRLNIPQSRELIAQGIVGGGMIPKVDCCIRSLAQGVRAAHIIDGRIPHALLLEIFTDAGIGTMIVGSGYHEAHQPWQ

Variants of: B1
Details: with argb_syne7 argB

| Variant | effect of a mutation on the interaction |
| --- | --- |
| S49D | decreasing interaction |
| S49A | decreasing interaction |
| S49E | decreasing interaction |
